Results as given in patent US20070128190A1.

Tests used:
[1] = molecular target: human α2β1 integrin on human cells (platelets, leukocytes, HT1080) (human) (UniProt P17301); test: cell-based or functional assay
[2] = molecular target: human platelet α2β1 integrin (immobilized on microtiter plates) (human) (UniProt P17301); test: competition with Eu-TMC-2206 on platelet α2β1-coated plates
TMC-2206 [3] = test: fusion protein competing Eu-TMC-2206 off α2β1-coated plate
TMC-2206 [4] = test: ELISA, GST fusion protein on immobilized TMC-2206 (Kd apparent)
TMC-2206 [5] = test: ELISA, GST fusion protein on immobilized TMC-2206
TMC-2206 [6] = test: ELISA, GST fusion protein on immobilized TMC-2206, Kd estimated from EC50
[7] = molecular target: Humanized TMC-2206 (hIgG4/κ VH12.0/VL10.0Q); test: fusion protein competing Eu-humanized TMC-2206 off α2β1-coated plates

Substance | Ki (TMC-2206 [3]) | Kd (TMC-2206 [4]) | further results
10G11 (antibody) |  |  | EC50, adhesion of resting platelets to Type I collagen [1]: > 200000 pM
AK7 (antibody) |  |  | Ki [2]: 70 pM
GST-hα2 I domain E44V (from UniProt P17301 153-368) | 350 pM | 230 pM | 
GST-hα2 I domain I21V (from UniProt P17301 153-368) | 240 pM | 280 pM | 
GST-hα2 I domain N67E (from UniProt P17301 153-368) | 400 pM | 280 pM | 
GST-hα2 I domain Q48T (from UniProt P17301 153-368) | 730 pM | 190 pM | 
GST-hα2 I domain Q105E (from UniProt P17301 153-368) | 380 pM | 150 pM | 
GST-hα2 I domain T76D (from UniProt P17301 153-368) | 150 pM | 170 pM | 
GST-hα2 I domain V70I (from UniProt P17301 153-368) | 860 pM | 440 pM | 
GST-hα2 I domain V71I (from UniProt P17301 153-368) | 830 pM | 190 pM | 
GST-hα2 I domain Y77F (from UniProt P17301 153-368) | 390 pM | 220 pM | 
GST-hα2 I domain Y93H (from UniProt P17301 153-368) |  | 6100 pM | fold decrease in apparent affinity (TMC-2206 [5]): 23 fold
GST-mα2 I domain H93Y (from UniProt Q62469 150-377) | 20200 pM |  | fold decrease in potency relative to the wt human α2 I domain (TMC-2206 [3]): 200 fold
GST-rat α2 I domain fusion protein (from UniProt Q62469 150-377) | 3800 pM |  | Kd (TMC-2206 [6]): 540 pM; Ki [7]: 5230 pM; fold decrease in Ki compared to the human α2 I domain [7]: 9 fold; fold shift in Kd compared to human α2 (TMC-2206 [5]): 3 fold
